Measurements taken from patent US20260152559A1 (Janssen / Centocor, published 2026).
Substitutions are numbered along the chain they refer to. Each block holds one binder with its values, some of them ahead of it.

Legend:
[1] = biological target: T1, kallikrein related peptidase 2 (hK2), soluble (human, UniProt P20151 19-261, biotin label in the CAR staining assays (site not stated)); test: SPR; antibody captured on anti-Fc sensor chip, soluble hK2 injected; 1:1 Langmuir fit, KD = koff/kon
T1 construct: also called KLK2; human KLK2 protein

[2] = biological target: T1, kallikrein related peptidase 2 (hK2), …; test: flow cytometry, primary human T cells transduced with the CAR lentivirus (MOI 3), biotinylated hK2 (1 ug/ml) then streptavidin-PE, 14 days after transduction; UTD gate 0.086 [contd]
[3] = biological target: T1, kallikrein related peptidase 2 (hK2), …; test: flow cytometry, primary human T cells transduced with the CAR lentivirus (MOI 3), biotinylated hK2 (1 ug/ml) then streptavidin-PE, 14 days after transduction; UTD gate 0.086
[4] = biological target: T1, kallikrein related peptidase 2 (hK2), …; test: SPR; bispecific antibody captured on anti-Fc sensor chip, soluble hK2 injected; 1:1 Langmuir fit
Procedure: Affinity of selected hK2×CD3 bispecific antibodies to hK2 or human CD3 was measured by surface plasmon resonance (SPR). SPR is a label-free technique to study the strength of an interaction between two binding partners by measuring the change in mass upon complex formation and dissociation. Antibodies were captured on a sensor chip coated with an anti-Fc antibody followed by injection of soluble hK2 or soluble recombinant human CD3 at various concentrations and specified association and dissociation times. Post dissociation, the surface was regenerated with an appropriate solution to prepare for the next interaction. Kinetic information (on-rate and off-rate constants) were extracted by fitting sensorgrams to the 1:1 Langmuir model. Binding affinity (KD) are reported as the ratio of rate constants (koff/kon).

T1 sequence (P20151 19-261): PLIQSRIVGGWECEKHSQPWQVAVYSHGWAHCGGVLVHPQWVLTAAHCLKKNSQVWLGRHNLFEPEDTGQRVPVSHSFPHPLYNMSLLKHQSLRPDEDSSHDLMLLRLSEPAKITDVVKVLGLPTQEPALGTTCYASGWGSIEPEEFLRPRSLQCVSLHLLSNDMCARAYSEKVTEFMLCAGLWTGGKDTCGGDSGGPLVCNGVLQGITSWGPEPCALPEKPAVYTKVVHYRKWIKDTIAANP

Kd [1]: 40 pM
B1: KL2B242 (Fab) (Fab, V domains shown)
VH: QVQLQESGPGLVKPSETLSLTCTVSGGSISSYYWSWLRQPAGSGLEWIGRLYVSGFTNYNPSLKSRVTLSLDPSRNQLSLKLSSVTAADTAVYYCAGDSGNYWGWFDPWGQGTLVTVSS
VL: SYELTQPPSVSVSPGETASITCSGDQLGENYACWYQQKPGQSPVLVIYQDSKRPSGIPERFSGSNSGNTATLTISGTQALDEADYYCQAWDNSIVVFGGGTKLTVL

Kd [1]: 80 pM
B2: KL2B53 (Fab) (Fab, V domains shown)
VH: EVQLVESGGGVVQPGRSLRLSCVASGFTFSSYDIHWVRQAPGKGLEWVAIISYDGSKKDYTDSVKGRFTISRDNSKNTLYLQMDSLRVEDSAVYSCARESGWSHYYYYGMDVWGQGTMVTVSS
VL: DIVMTQSPSSLSASVGDRVTITCRASQDISNYLAWYQQKPGKVPKFLIYAASTLHSGVPSRFSGSGSGTDFTLTISSLQPEDVATYYCQKYNSAPYTFGQGTRLEIK

Kd [1]: 700 to 1000 pM
B3: KL2B359 (scFv-LH-Fc) (Fc fusion)
chain: EIVLTQSPATLSLSPGERATLSCRASESVEYFGTSLMHWYQQKPGQPPRLLIYAASNVESGIPARFSGSGSGTDFTLTISSVEPEDFAVYFCQQTRKVPYTFGGGTKVEIKGGSEGKSSGSGSESKSTGGSQVQLQESGPGLVKPSQTLSLTCTVSGNSITSDYAWNWIRQFPGKRLEWIGYISYSGSTTYNPSLKSRVTISRDTSKNQFSLKLSSVTAADTAVYYCATGYYYGSGFWGQGTLVTVSSEPKSSDKTHTCPPCPAPEAAGGPSVFLFPPKPKDTLMISRTPEVTCVVVSVSHEDPEVKFNWYVDGVEVHNAKTKPREEQYNSTYRVVSVLTVLHQDWLNGKEYKCKVSNKALPAPIEKTISKAKGQPREPQVYVLPPSREEMTKNQVSLLCLVKGFYPSDIAVEWESNGQPENNYLTWPPVLDSDGSFFLYSKLTVDKSRWQQGNVFSCSVMHEALHNHYTQKSLSLSPG
notes: also called KL2B359-LH-scFv-Fc

% of cells in the hK2CAR+ CD3+ gate [2]: 42.7%
B4: CAR4 (HL_HCG5_LCB7_20AA) (other)
chain: QVQLQESGPGLVKPSDTLSLTCAVSGNSITSDYAWNWIRQFPGKGLEWMGYISYSGSTTYNPSLKSRVTISRDTSKNQFSLKLSSVTPVDTAVYYCATGYYYGSGFWGQGTLVTVSSGGSEGKSSGSGSESKSTGGSDIVLTQSPDSLAVSLGERATINCKASESVEYFGTSLMHWYQQKPGQPPKLLIYAASNRESGVPDRFSGSGSGTDFTLTISSVQAEDVAVYYCQQTRKVPYTFGQGTKLEIKTSTPAPRPPTPAPTIASQPLSLRPEACRPAAGGAVHTRGLDFACDIYIWAPLAGTCGVLLLSLVITLYCKRGRKKLLYIFKQPFMRPVQTTQEEDGCSCRFPEEEEGGCELRVKFSRSADAPAYKQGQNQLYNELNLGRREEYDVLDKRRGRDPEMGGKPRRKNPQEGLYNELQKDKMAEAYSEIGMKGERRRGKGHDGLYQGLSTATKDTYDALHMQALPPR
notes: Chimeric antigen receptor on JNL cells or primary human T cells; also called hK2 CAR; pDR000083437

% of cells in the hK2CAR+ CD3+ gate [2]: 29.4%
B5: CAR3 (HL_HCF3_LCB7_20AA) (other)
chain: B4 chain with M49I
notes: Chimeric antigen receptor on JNL cells or primary human T cells; also called hK2 CAR; pDR000083436

% of cells in the hK2CAR+ CD3+ gate [3]: 20%
B6: CAR1 (HL_HCG5_LCD6_20AA) (other)
chain: B4 chain with S217Q, A225S, Y228F
notes: Chimeric antigen receptor (scFv, CD8a hinge and transmembrane region, 4-1BB and CD3-zeta domains) on JNL cells or primary human T cells; also called hK2 CAR; pDR000083431

% of cells in the hK2CAR+ CD3+ gate [3]: 6.12%
B7: CAR13 (HL_HCHumanized_LCHumanized_20AA) (other)
chain: B4 chain with F41P, M49I, I70M, P88A, V219L
notes: Chimeric antigen receptor with the hu11B6 scFv in VH-linker-VL order, on JNL cells or primary human T cells; also called 11B6_HL; parental 11B6 CAR HL

% of cells in the hK2CAR+ CD3+ gate [3]: 23.6%
B8: CAR2 (HL_HCG5_LCHumanized_20AA) (other)
chain: B4 chain with V219L
notes: Chimeric antigen receptor on JNL cells or primary human T cells; also called hK2 CAR; pDR000083432

Kd [1]: 34300 pM
B9: KL2B413 (scFv-LH-Fc) (Fc fusion)
chain: EIVLTQSPSFLSASVGDRVTITCRASQGISSYLSWYQQKPGKAPKLLIYATSTLQSGVPSRFSGSGSGTEFTLTISSLQPEDFATYYCQQLNSYPRTFGQGTKVEIKGGSEGKSSGSGSESKSTGGSEVQLVESGGGLVQPGGSLRLSCAASGFTFSSYWMTWVRQAPGKGLEWVANIKQDGSERYYVDSVKGRFTISRDNAKNSLYLQMNSLRAEDTAVYYCARDQNYDILTGHYGMDVWGQGTTVTVSSEPKSSDKTHTCPPCPAPEAAGGPSVFLFPPKPKDTLMISRTPEVTCVVVSVSHEDPEVKFNWYVDGVEVHNAKTKPREEQYNSTYRVVSVLTVLHQDWLNGKEYKCKVSNKALPAPIEKTISKAKGQPREPQVYVLPPSREEMTKNQVSLLCLVKGFYPSDIAVEWESNGQPENNYLTWPPVLDSDGSFFLYSKLTVDKSRWQQGNVFSCSVMHEALHNHYTQKSLSLSPG
notes: also called KL2B413-LH-scFv-Fc

Kd [4]: 90 pM
B10: KL2B467 Fab (binding arm listed in Table 39 for hK2/CD3 bispecific antibodies) (bispecific antibody, V domains shown)
VH: QVQLVESGGGVVQPGRSLRLSCAASGFTFSYYGMHWVRQAPGKGLEWVAFISYDGSNKYYADSVKGRFTISRDNSKNTLYLQMNSLRAEDTAVYYCAHLPYSGSYWAFDYWGQGTQVTVSS
VL: QSVLTQPPSVSVAPGQTASITCGGDNIGSKSVHWYQQKPGQAPVLVVYDNSDRPSGIPERFSGSNSGTTATLTISRVEAGDEADYYCQVWDSSSDHPVVFGGGTKVTV

Kd [1]: 78 pM
B11: KL2B467 (Fab) (Fab, V domains shown)
VH: B10 VH
VL: B10 VL

% of cells in the hK2CAR+ CD3+ gate [2]: 21.5%
B12: CAR8 (LH_LCB7_HCF3_20AA) (other)
chain: DIVLTQSPDSLAVSLGERATINCKASESVEYFGTSLMHWYQQKPGQPPKLLIYAASNRESGVPDRFSGSGSGTDFTLTISSVQAEDVAVYYCQQTRKVPYTFGQGTKLEIKGGSEGKSSGSGSESKSTGGSQVQLQESGPGLVKPSDTLSLTCAVSGNSITSDYAWNWIRQFPGKGLEWIGYISYSGSTTYNPSLKSRVTISRDTSKNQFSLKLSSVTPVDTAVYYCATGYYYGSGFWGQGTLVTVSSTSTPAPRPPTPAPTIASQPLSLRPEACRPAAGGAVHTRGLDFACDIYIWAPLAGTCGVLLLSLVITLYCKRGRKKLLYIFKQPFMRPVQTTQEEDGCSCRFPEEEEGGCELRVKFSRSADAPAYKQGQNQLYNELNLGRREEYDVLDKRRGRDPEMGGKPRRKNPQEGLYNELQKDKMAEAYSEIGMKGERRRGKGHDGLYQGLSTATKDTYDALHMQALPPR
notes: Chimeric antigen receptor on JNL cells or primary human T cells; also called hK2 CAR; pDR000083443

% of cells in the hK2CAR+ CD3+ gate [3]: 27.8%
B13: CAR6 (LH_LCHumanized_HCF3_20AA) (other)
chain: B12 chain with V82L
notes: Chimeric antigen receptor on JNL cells or primary human T cells; also called hK2 CAR; pDR000083440

% of cells in the hK2CAR+ CD3+ gate [3]: 22.6%
B14: CAR15 (LH_LCHumanized_HCHumanized_20AA) (other)
chain: B12 chain with V82L, F172P, I201M, P219A
notes: Chimeric antigen receptor with the hu11B6 scFv in VL-linker-VH order, on JNL cells or primary human T cells; also called 11B6_LH; parental 11B6 CAR LH

% of cells in the hK2CAR+ CD3+ gate [2]: 30.6%
B15: CAR9 (LH_LCB7_HCG5_20AA) (other)
chain: B12 chain with I180M
notes: Chimeric antigen receptor on JNL cells or primary human T cells; also called hK2 CAR; pDR000083444

% of cells in the hK2CAR+ CD3+ gate [3]: 35%
B16: CAR7 (LH_LCHumanized_HCG5_20AA) (other)
chain: B12 chain with V82L, I180M
notes: Chimeric antigen receptor on JNL cells or primary human T cells; also called hK2 CAR; pDR000083441

Kd [1]: 53 pM
B17: KL2B494 (Fab) (Fab, V domains shown)
VH: QVQLVESGGGLVQPGGSLRLSCAASGFTFSHYAMSWVRQAPGKGLEWVSTIGGSGGSTYYADSVKGRFTISRDNSKNTLYLQMNSLRAEDTAVYYCAKPHIVMVTALLYDGMDVWGQGTMVTVSS
VL: SSELTQPPSVSVAPGQTARITCGGNNIGSKSVHWYQQKPGQAPVLVVYDDSDRPSGIPERFSGSNSGNTATLTISRVEAGDEADYYCQVWDSSSDHVVFGGGTKLTVL

Kd [4]: 60 pM
B18: KL2B494 Fab (binding arm listed in Table 39 for hK2/CD3 bispecific antibodies) (bispecific antibody, V domains shown)
VH: B17 VH
VL: B17 VL

Kd [1]: 460 pM
B19: KL2B30 (Fab) (Fab, V domains shown)
VH: QVQLQESGPGLVKPSETLSLTCTVSGGSISSYYWSWIRQPPGKGLEWIGYIYYSGSTNYNPSLKSRVTISVDTSKNQFSLKLSSVTAADTAVYYCAGTTIFGVVTPNFYYGMDVWGQGTTVTVSS
VL: DIQMTQSPSFLSASVGDRVTITCRASQGISSYLAWYQQKPGKAPKFLIYAASTLQSGVPSRFSGSGSGTEFTLTISSLQPEDFATYYCQQLNSYPLTFGGGTKVEIK
